Numbered stars: 1 amine (or outer) side, 2 acyl side, 3 side chain; on linkers, the order of the positions; unused ones are H or OH. Bridge positions count the residues as written; N and C are the ends. Ends that are not written are not given here. Phenylene(1,4-NHCOCH2)2 = O=C(C[*:1])Nc1ccc(NC(=O)C[*:2])cc1
Target: T1, MDM2 (Homo sapiens, UniProt Q00987)
T1 construct: made in house
Experiment: Naive Library Presenter Screening (phage, NGS), MDM2
Type: binding
Conditions: for interaction data, BLANK: Blank = Media only

[1] = MDM2 clusters (C82, C85), first column
[2] = MDM2 clusters (C82, C85), second column
[3] = MDM2 clusters (C82, C85), target concentration 10 nM
[4] = MDM2 clusters (C82, C85), target concentration 30 nM
[5] = MDM2 clusters (C82, C85), target concentration 100 nM
[6] = MDM2 clusters (C82, C85), target concentration 300 nM
[7] = MDM2 clusters (C82, C85), target concentration 1000 nM, first column
[8] = MDM2 clusters (C82, C85), target concentration 1000 nM, second column
[9] = MDM2 target concentration 10 nM
[10] = MDM2 target concentration 30 nM
[11] = MDM2 target concentration 100 nM
[12] = MDM2 target concentration 300 nM
[13] = MDM2 target concentration 1000 nM, first column
[14] = MDM2 target concentration 1000 nM, second column

T1 sequence (Q00987 25-109): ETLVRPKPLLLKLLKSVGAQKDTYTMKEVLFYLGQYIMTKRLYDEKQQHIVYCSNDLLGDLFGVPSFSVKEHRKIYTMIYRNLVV

Row | interaction data, BLANK [1] | interaction data, BLANK [2] | interaction data at Target Concentration 10 [3] | interaction data at Target Concentration 30 [4] | interaction data at Target Concentration 100 [5] | interaction data at Target Concentration 300 [6] | interaction data at Target Concentration 1000 [7] | interaction data at Target Concentration 1000 [8] | interaction data at Target Concentration 10 [9] | interaction data at Target Concentration 30 [10] | interaction data at Target Concentration 100 [11] | interaction data at Target Concentration 300 [12] | interaction data at Target Concentration 1000 [13] | interaction data at Target Concentration 1000 [14] | Sequence
1 | 0 | 0 | 0 | 0 | 9 | 6 | 14 | 8 | – | – | – | – | – | – | DPARVHCNQAAFMCHWV (DPARVHCNQAAFMCHWV-NH2; linker 7-14 via Phenylene(1,4-NHCOCH2)2 (inferred))
2 | – | – | – | – | – | – | – | – | 0 | 0 | 19 | 21 | 13 | 38 | DPAYASCFSAAWDCQFW (linker 7-14 via Phenylene(1,4-NHCOCH2)2 (inferred))
3 | – | – | – | – | – | – | – | – | 7 | 11 | 0 | 0 | 5 | 6 | DPADSECFQAASDCQYW (linker 7-14 via Phenylene(1,4-NHCOCH2)2 (inferred))
4 | 0 | 0 | 0 | 8 | 28 | 27 | 33 | 14 | – | – | – | – | – | – | DPASAECFFAAWQCIAT (DPASAECFFAAWQCIAT-NH2; linker 7-14 via Phenylene(1,4-NHCOCH2)2 (inferred))
5 | 0 | 0 | 0 | 0 | 35 | 47 | 52 | 29 | – | – | – | – | – | – | DPAQSDCFQAAWECVAN (DPAQSDCFQAAWECVAN-NH2; linker 7-14 via Phenylene(1,4-NHCOCH2)2 (inferred))
6 | 0 | 0 | 0 | 0 | 25 | 17 | 25 | 57 | – | – | – | – | – | – | DPALFSCDSAAFSCYWY (linker 7-14 via Phenylene(1,4-NHCOCH2)2 (inferred); not fully specified (C-terminus))
7 | 0 | 0 | 0 | 53 | 106 | 232 | 148 | 261 | – | – | – | – | – | – | DPARRECMDAAFWCQWV (DPARRECMDAAFWCQWV-NH2; linker 7-14 via Phenylene(1,4-NHCOCH2)2 (inferred))
8 | 0 | 0 | 1 | 48 | 230 | 375 | 356 | 327 | – | – | – | – | – | – | DPAHQQCFMAAWRCVVH (linker 7-14 via Phenylene(1,4-NHCOCH2)2 (inferred))
9 | 0 | 0 | 0 | 1 | 12 | 33 | 46 | 18 | – | – | – | – | – | – | DPADIVCQDAAFQCFWW (linker 7-14 via Phenylene(1,4-NHCOCH2)2 (inferred))

From patent US20240376151A1, “STAPLED PEPTIDES AND METHODS THEREOF” (FOG PHARMACEUTICALS, INC., priority 2022, published 2024)
